Source: patent US20040009939A1, “Methods of enhancing immune induction involving MDA-7” (Board of Regent, The University of Texas System, priority 2002, published 2004)
Entries after “also recorded” stand apart in the source; their conditions may differ.

Legend:
HUVEC and HMVEC cells = test: Endothelial cell differentiation (tube formation) assay; type: cell-based, human
Protocol: Endothelial cell differentiation (tube formation) assays were done using an in vitro angiogenesis assay kit (Chemicon, Temecula, Calif.). Briefly, HUVEC and HMVEC cells were grown to 80% confluency, collected, resuspended in growth medium and plated at a concentration of 2×10^4 cells/well in a 96-well plate coated with matrigel (Chemicon, Temecula, Calif.). To the wells, varying concentrations of MDA-7 protein were added and incubated for 24 h at 37° C. Wells that were not treated with MDA-7 protein served as a negative control. The ability of sMDA-7 to inhibit tube formation was determined and quantitated by counting the number of tubes under bright field microscopy. All samples were tested in duplicate. For comparative studies using MDA-7 and endostatin (Calbiochem), cells were plated as described above and exposed to varying concentration of the proteins. […] All other experimental procedures were the same as described above.

HUVEC cells = test: Endothelial cell migration assay; type: cell-based, human; conditions: VEGF 100 ng/ml
Protocol: Migration assays were performed using HUVEC cells. Cells were starved overnight in basal medium containing 0.5% fetal bovine serum (FBS), collected and re-suspended in the same medium and seeded at a concentration of 1×10^5 cells/well in the upper surface of a 24-well transwell insert with a filter size of 8 μm (Millipore, Cambridge, Mass.). The insert was placed in a 6-well plate that contained medium plus VEGF (100 ng/ml) or VEGF plus MDA-7 (10 ng/ml). The plates containing the transwell were incubated at 37° C. overnight to allow migration. The following day, the wells were disassembled, membranes fixed in crystal violet and the number of cells that had migrated to the lower wells were counted under high power magnification (×40).

HUVEC = test: IP-10 and IFN-γ production by ELISA; type: cell-based, human; conditions: sMDA-7 treated HUVEC supernatant
Protocol: HUVEC was seeded in six-well plates (1×10^5/well) and treated with sMDA-7 (10 ng/ml). Cell culture supernatant was collected at 6 h, 24 h, and 48 h after treatment, centrifuged at 1200 rpm, and analyzed for IP-10 and IFN-γ protein production using commercially available ELISA kits. Assays were performed as recommended by the manufacturer (R&D Systems, Minneapolis, Minn.). Cells treated with recombinant IFN-γ served as positive controls for IP-10 while cells treated with Ad-mda7 (3000 vp/cell) served as positive control for IFN-γ. Untreated cells served as negative controls in these experiments. Samples were analyzed in quadruplicate and data represented as the average value for each concentration of sMDA-7 tested.

STAT-3 = test: pSTAT-3 Western blot and immunofluorescence; type: cell-based, human
Protocol: To determine the regulation of pSTAT-3 expression following the addition of sMDA-7, Western blot analysis was performed as described previously (Wang et al., 2002). Briefly, cells were harvested by trypsinization and resuspended in lysis buffer (62.5 mM Tris-HCl, 2% SDS, 10% glycerol, 4 M urea). Protein samples (50 μg) were each diluted into a 20 μl solution of lysis buffer and 5% 2-mercaptoethanol (Bio-Rad Laboratories, Hercules, Calif.) and heated in a water bath at 95° C. for 5 min. Protein extracts were then separated by 10% SDS-PAGE in a vertical-slab gel electrophoresis cell (Bio-Rad). The separated proteins were transferred from gel to nitrocellulose membrane (Hybond-ECL; Amersham Pharmacia Biotech, Buckinghamshire, England) and then blocked in a blocking solution (5% dry milk and 0.3% Tween 20 in PBS) for 1 hour. Membranes were incubated with the primary antibodies against pSTAT-3 (1:1000), and β-actin (1:10000). The membranes were then incubated with horseradish peroxidase-labeled secondary antibodies (Amersham). Finally, the proteins were visualized on enhanced chemiluminescence film (Hyperfilm, Amersham) by application of Amersham's Enhanced Chemiluminescence Western blotting detection system.
Activation of STAT-3 was also determined by immunofluorescence assay. HUVEC seeded in two-well chamber slides (1×10^4 cells/well) was treated with sMDA-7 (10 ng/ml) for 4 h, washed in PBS, fixed in cold acetic acid and stained for phosphorylated STAT-3 (pSTAT-3) using rabbit anti-human pSTAT-3 antibody (1:1000, Cell Signaling Technology, Beverly, Mass.) and rhodamine labeled anti-rabbit secondary antibody (1:5000; Molecular Probes, Eugene, Oreg.). Slides were mounted using anti-fade mounting reagent (Vector Laboratories). Pictures were taken 1-2 h after staining using a fluorescence microscope.

[1] = tested on: bFGF-induced angiogenesis; test: In vivo angiogenesis Matrigel assay; design: species or system athymic nude mice
Protocol: To determine the anti-angiogenic activity of sMDA-7, an in vivo angiogenesis assay was performed. Briefly, sMDA-7 and bFGF were mixed with 500 μl of matrigel (Beckton and Dickenson) on ice and injected subcutaneously into athymic nude mice. Animals receiving matrigel containing only bFGF (60 ng) served as a positive control while animals receiving matrigel containing no growth factor served as a negative control. Each group consisted of 5 animals. Experiments were terminated on day 10 and the matrigel was harvested, photographed and subjected to hemoglobin analysis as described previously (Caudel et al., 2002).

Serum sMDA-7 by ELISA = type: in vivo, nude mice; conditions: animals implanted with 293 cells producing MDA-7
Source text: Mice were inoculated subcutaneously with A549 tumor cells in the lower right flank as described in Example 19. When the tumors had reached a size of 50 mm^3, 293 cells producing sMDA-7 (293-mda-7) or parental 293 cells (control) were encapsulated in matrigel and implanted subcutaneously at a site distant (upper right flank) from the tumor and the tumor growth was monitored. […] In comparison to the control, the growth of the tumors was suppressed by 50% after implantation of the encapsulated 293 cells producing MDA-7 protein. To confirm that the inhibitory effect was due to sMDA-7, serum samples from animals were tested for MDA-7 protein by Western blot analysis and ELISA. […] However, faint bands were also observed in the control that may be due to some cross-reactivity with serum proteins. The serum levels of sMDA-7 detected by ELISA was approximately 50 ng/ml.

tumor cells = test: Tumor cell death by secreted MDA-7 supernatant and bystander mixing; type: cell-based, human; conditions: supernatant from 293 cells applied to tumor cell cultures
Protocol: This hypothesis was further tested by adding secreted MDA-7 to tumor cells and monitoring cell death. […] When culture supernatants were treated to minimize Ad-mda7 contamination, negligible cell death was induced by MDA-7 containing supernatants. When supernatant from 293 cells was applied to tumor cell cultures, only low levels of cell death were seen (approximately 10-15% above background levels) confirming that the secreted MDA-7, at least at the concentrations released by these cells, was not sufficient to elicit substantial cell death in tumor cells.
In that study, H460 cells were transduced with Ad-mda7 and immunostained with anti-MDA-7 antibody in conjunction with Annexin V staining. By confocal analysis, it was observed that some cells were Annexin V positive but were negative for MDA-7 expression. The frequency of Annexin V positive/MDA-7 negative cells was low and […] in multiple cells lines. Thus, to further evaluate the contribution of secreted MDA-7 in inducing apoptosis in neighboring cells, a series of bystander experiments were performed. Ad-mda7 transduced cells were mixed with native cells that had been previously labled with Ad-GFP and the cultures were scored for apoptosis in the GFP positive cells.

human PBMC = conditions: cited from earlier work

B1: sMDA-7: secreted, glycosylated MDA-7 protein purified from supernatant of 293-mda-7 cells (protein)
chain: AQGQEFHFGPCQVKGVVPQKLWEAFWAVKDTMQAQDNITSARLLQQEVLQNVSDAESCYLVHTLLEFYLKTVFKNYHNRTVEVRTLKSFSTLANNFVLIVSQLQPSQENEMFSIRDSAHRRFLLFRRAFKQLDVEAALTKALGEVDILLTWMQKFYKL
Q: For B1, which “concentration giving complete abrogation of tubular formation” value (HUVEC and HMVEC cells; HUVEC and HMVEC) is on record?
A: 10 ng/mL

Q: And the “inhibition of endothelial tube formation” value (HUVEC and HMVEC cells; HUVEC and HMVEC, 24 h)?
A: significant inhibition of endothelial tube formation

Q: And the “tubular formation in the presence of IL-10R neutralizing antibody” value (HUVEC and HMVEC cells; HUVEC, antibody 5 ng, sMDA-7 5 ng)?
A: able to inhibit tubular formation

Q: And the tube formation (HUVEC and HMVEC cells; HUVEC, sMDA-7 5 ng)?
A: complete inhibition of tube formation

Q: And the “amount giving complete inhibition of migration” value (HUVEC cells; MDA-7)?
A: 50 ng

Q: What about the “endothelial cell migration induced by VEGF” value (HUVEC cells; sMDA-7 10 ng/ml) of the same molecule?
A: blocked endothelial cell migration

Q: What about the IFN-γ induction (HUVEC) of the same molecule?
A: IP-10 but not IFN-γ was induced

Q: And the “amount of IP-10 produced” value (HUVEC; various time points)?
A: 15 to 32 pg/mL

Q: What about the pSTAT-3 protein expression (STAT-3; HUVEC and HMVEC, Western blot) of the same molecule?
A: significant increase in the phosphorylated form of STAT-3 (pSTAT-3) protein expression as early as 4 h

Q: What about the “nuclear localization of pSTAT-3” value (STAT-3; HUVEC, immunofluorescence) of the same molecule?
A: increased nuclear localization of pSTAT-3 protein

Q: What about the “time of maximal pSTAT-3 expression” value (STAT-3; after treatment) of the same molecule?
A: 24 h

Q: What about the “hemoglobin content in the matrigel” value ([1]; day 10, vs no bFGF, only bFGF, or endostatin) of the same molecule?
A: very significant (p=0.0001) inhibitory effect; also recorded: significant reduction in hemoglobin content

Q: What about the “bFGF-induced angiogenesis in matrigel” value ([1]; sMDA-7 10 ng, 10 days after implantation) of the same molecule?
A: inhibition of bFGF-induced angiogenesis

Q: And the “serum levels of sMDA-7 detected by ELISA” value (Serum sMDA-7 by ELISA)?
A: approximately 50 ng/ml

Q: What about the “cell death above background levels” value (tumor cells) of the same molecule?
A: 10-15%

Q: What about the cytokine induction (human PBMC) of the same molecule?
A: causes the induction of IFN-γ, IL-6 and TNF-α
